Measurements as given in the supplement of paper PMC10065799, “High-throughput profiling of sequence recognition by tyrosine kinases and SH2 domains using bacterial peptide display” (eLife, 2023).

Tests used:
Grb2 SH2 = Grb2 SH2 (UniProt P62993); assay: SH2 binding enrichment of the phosphorylated peptide, bacterial display (enrichment ratio); higher = better substrate or ligand; peptides without Tyr show the background
SHP2-C SH2 = assay: as above
c-Src SH2 = assay: as above
FGFR1 = FGFR1 (UniProt P11362); assay: phosphorylation enrichment, bacterial display (enrichment ratio); higher = better substrate or ligand; peptides without Tyr show the background
EPHB2 = EPHB2 (UniProt P29323); assay: as above
Chain of EPHB2 (P29323 whole entry, looked up): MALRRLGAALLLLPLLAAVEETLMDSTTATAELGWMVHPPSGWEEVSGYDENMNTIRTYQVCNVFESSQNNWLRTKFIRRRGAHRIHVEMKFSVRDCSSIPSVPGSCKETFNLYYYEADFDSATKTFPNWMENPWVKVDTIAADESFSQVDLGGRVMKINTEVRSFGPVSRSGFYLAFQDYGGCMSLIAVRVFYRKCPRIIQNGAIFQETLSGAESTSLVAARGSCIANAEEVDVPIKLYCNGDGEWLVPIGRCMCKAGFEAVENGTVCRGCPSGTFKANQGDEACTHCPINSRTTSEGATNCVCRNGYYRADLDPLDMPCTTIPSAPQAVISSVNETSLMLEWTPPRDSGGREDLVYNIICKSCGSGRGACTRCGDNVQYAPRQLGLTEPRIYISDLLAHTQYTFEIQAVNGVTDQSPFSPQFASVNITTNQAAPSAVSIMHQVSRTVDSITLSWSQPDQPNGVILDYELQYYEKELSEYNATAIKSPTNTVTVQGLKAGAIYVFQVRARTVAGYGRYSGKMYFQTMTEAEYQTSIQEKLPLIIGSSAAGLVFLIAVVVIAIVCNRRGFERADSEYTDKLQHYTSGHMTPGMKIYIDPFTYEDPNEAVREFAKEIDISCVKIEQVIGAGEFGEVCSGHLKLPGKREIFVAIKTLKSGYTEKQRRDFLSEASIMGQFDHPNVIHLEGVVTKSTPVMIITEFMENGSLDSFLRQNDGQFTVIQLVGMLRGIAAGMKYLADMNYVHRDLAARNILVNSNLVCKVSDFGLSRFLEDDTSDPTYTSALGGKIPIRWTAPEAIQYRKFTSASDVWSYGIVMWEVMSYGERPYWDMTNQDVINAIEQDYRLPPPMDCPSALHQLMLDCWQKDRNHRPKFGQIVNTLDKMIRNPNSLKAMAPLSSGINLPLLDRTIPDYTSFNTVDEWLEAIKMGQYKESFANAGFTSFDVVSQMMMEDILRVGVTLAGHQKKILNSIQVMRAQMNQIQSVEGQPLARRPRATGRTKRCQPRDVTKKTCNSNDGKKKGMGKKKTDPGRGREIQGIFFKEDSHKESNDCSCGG

Hck = Hck (UniProt P08631); assay: as above
Chain of Hck (P08631 whole entry, looked up): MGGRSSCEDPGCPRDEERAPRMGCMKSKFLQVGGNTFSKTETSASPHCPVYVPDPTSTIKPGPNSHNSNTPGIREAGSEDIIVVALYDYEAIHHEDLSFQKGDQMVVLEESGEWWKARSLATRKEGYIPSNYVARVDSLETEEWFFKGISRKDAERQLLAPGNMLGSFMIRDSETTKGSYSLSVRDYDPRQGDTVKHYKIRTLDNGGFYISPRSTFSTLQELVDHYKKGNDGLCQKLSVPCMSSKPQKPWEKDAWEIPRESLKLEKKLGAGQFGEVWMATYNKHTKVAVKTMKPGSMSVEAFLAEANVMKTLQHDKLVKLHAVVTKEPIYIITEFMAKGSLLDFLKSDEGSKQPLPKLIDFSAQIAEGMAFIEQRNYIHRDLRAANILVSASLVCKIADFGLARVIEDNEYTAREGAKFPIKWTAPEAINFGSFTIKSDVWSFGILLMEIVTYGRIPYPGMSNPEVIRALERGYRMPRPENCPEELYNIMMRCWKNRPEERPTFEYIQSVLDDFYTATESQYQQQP

Jak2 = Jak2 (UniProt O60674); assay: as above
AncSZ = assay: as above
Fyn = Fyn (UniProt P06241); assay: as above
Chain of Fyn (P06241 whole entry, looked up): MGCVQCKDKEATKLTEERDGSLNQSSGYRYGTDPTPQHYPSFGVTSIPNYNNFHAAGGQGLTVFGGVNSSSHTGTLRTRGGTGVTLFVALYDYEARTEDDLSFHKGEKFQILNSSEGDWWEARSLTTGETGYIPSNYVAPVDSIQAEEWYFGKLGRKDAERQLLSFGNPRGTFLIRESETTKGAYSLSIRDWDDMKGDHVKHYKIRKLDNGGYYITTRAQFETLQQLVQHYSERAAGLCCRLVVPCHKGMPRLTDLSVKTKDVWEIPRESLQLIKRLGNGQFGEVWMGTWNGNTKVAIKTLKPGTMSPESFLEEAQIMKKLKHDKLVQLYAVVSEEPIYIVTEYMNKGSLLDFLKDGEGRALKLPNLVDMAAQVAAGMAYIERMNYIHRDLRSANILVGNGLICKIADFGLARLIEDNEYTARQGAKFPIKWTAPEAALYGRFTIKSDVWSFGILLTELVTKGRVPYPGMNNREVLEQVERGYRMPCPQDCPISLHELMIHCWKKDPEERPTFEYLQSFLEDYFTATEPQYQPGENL

Fes = Fes (UniProt P07332); assay: as above
Chain of Fes (P07332 whole entry, looked up): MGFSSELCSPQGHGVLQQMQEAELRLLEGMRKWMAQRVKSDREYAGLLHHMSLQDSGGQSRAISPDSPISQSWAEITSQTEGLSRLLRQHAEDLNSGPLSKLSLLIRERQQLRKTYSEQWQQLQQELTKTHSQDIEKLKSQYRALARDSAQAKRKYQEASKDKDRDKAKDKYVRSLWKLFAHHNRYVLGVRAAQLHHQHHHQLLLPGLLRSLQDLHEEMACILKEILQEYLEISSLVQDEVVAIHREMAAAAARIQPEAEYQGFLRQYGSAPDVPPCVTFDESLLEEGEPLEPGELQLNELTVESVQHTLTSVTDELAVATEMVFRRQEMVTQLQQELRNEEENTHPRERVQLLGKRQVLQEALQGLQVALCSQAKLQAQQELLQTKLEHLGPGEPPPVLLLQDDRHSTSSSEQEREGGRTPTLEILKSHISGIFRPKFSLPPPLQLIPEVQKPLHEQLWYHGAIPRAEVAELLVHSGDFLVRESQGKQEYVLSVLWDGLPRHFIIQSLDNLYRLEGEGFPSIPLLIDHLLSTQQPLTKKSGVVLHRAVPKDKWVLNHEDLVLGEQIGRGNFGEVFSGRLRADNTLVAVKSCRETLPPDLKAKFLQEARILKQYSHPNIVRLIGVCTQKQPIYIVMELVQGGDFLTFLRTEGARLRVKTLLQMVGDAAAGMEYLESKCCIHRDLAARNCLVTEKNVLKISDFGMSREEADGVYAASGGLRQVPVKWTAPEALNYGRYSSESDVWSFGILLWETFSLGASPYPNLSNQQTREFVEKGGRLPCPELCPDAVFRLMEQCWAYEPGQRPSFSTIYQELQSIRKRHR

EPHB1 = EPHB1 (UniProt P54762); assay: as above
Chain of EPHB1 (P54762 whole entry, looked up): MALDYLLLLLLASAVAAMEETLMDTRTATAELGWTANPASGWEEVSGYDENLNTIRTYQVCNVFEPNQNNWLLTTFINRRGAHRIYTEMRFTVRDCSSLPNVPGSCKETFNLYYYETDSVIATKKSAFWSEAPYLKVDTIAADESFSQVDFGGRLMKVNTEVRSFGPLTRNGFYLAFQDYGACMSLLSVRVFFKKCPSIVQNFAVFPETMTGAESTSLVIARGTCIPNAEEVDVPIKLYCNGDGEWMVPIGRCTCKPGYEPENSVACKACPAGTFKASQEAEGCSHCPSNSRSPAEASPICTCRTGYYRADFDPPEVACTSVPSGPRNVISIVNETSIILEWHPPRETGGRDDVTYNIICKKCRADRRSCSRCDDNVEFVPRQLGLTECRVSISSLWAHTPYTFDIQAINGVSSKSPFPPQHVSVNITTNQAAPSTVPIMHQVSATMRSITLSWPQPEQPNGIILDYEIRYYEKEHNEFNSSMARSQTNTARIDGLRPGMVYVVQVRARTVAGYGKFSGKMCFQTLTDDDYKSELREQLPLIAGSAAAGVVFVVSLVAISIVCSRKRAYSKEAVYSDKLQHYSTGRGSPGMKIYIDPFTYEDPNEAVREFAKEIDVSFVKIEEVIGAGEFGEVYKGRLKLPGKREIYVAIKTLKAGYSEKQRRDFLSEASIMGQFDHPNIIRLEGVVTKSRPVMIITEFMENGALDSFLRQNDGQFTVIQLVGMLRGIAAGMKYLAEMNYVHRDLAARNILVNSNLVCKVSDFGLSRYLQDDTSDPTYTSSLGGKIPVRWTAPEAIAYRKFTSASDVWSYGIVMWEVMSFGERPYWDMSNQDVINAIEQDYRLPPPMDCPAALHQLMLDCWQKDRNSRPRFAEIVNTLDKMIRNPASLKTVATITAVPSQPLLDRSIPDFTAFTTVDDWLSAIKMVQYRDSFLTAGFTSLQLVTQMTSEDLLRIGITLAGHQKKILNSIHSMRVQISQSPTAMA

c-Abl (mouse) = assay: as above
MERTK = MERTK (UniProt Q12866); assay: as above
Chain of MERTK (Q12866 whole entry, looked up): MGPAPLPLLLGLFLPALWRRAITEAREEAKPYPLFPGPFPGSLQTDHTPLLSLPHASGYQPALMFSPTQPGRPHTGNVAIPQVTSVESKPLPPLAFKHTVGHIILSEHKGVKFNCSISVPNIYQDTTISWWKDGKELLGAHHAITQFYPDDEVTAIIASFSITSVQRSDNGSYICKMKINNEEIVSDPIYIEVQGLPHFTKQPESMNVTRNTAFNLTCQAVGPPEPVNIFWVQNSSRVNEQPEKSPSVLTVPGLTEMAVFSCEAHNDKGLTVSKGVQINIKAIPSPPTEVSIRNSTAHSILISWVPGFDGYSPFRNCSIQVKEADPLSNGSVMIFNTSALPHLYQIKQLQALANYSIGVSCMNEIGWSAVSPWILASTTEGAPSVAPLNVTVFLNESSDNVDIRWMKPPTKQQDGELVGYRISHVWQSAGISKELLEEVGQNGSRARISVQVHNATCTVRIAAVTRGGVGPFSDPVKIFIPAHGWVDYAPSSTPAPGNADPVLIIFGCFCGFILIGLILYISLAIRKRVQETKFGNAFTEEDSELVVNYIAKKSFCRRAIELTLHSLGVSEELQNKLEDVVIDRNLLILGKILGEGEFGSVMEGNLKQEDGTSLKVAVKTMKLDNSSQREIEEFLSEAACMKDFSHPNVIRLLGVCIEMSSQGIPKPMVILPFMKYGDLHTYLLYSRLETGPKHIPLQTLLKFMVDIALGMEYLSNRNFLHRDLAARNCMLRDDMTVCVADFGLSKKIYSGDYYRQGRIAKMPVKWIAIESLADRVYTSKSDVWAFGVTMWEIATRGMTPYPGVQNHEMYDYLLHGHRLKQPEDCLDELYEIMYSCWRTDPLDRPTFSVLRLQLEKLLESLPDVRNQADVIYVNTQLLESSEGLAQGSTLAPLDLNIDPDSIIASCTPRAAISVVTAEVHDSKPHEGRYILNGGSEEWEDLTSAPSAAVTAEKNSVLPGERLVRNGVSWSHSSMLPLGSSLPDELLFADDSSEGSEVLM

Fer (mouse) = assay: as above
FGFR3 = FGFR3 (UniProt P22607); assay: as above
c-Src = assay: as above
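Throughout, for SH2 binding enrichment of the phosphorylated peptide, bacterial display: peptide library displayed on the E. coli surface as eCPX fusions, selected cells deep-sequenced, score is each peptide's frequency after selection divided by its frequency in the input.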
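Throughout, for phosphorylation enrichment, bacterial display: 11-residue human phosphosite peptides and single-mutation variants displayed on the E. coli surface, counted by deep sequencing, each peptide's frequency after selection divided by its frequency in the unselected input library; frequency after pTyr selection over input frequency; kinase dosed for 20-30% of maximal phosphorylation in three min.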

Sequence	SH2 binding enrichment (Grb2 SH2)	SH2 binding enrichment (SHP2-C SH2)	SH2 binding enrichment (c-Src SH2)	phosphorylation enrichment (FGFR1)	phosphorylation enrichment (EPHB2)	phosphorylation enrichment (Hck)	phosphorylation enrichment (Jak2)	phosphorylation enrichment (AncSZ)	phosphorylation enrichment (Fyn)	phosphorylation enrichment (Fes)	phosphorylation enrichment (EPHB1)	phosphorylation enrichment (c-Abl (mouse))	phosphorylation enrichment (MERTK)	phosphorylation enrichment (Fer (mouse))	phosphorylation enrichment (FGFR3)	phosphorylation enrichment (c-Src)
ASNNPYFRDQA [RPGRIP1_Y846]	0.89	0.689	0.51	0.443	0.357	0.449	0.547	0.605	0.5	0.694	0.396	0.537	0.416	0.434	0.656	0.512
DPFHVYIKNHV [KCNE3_Y95_R99H_YF]	0.978	0.839	0.643	0.469	0.735	0.519	1.2	1.22	0.382	1.32	0.671	0.915	0.354	0.585	0.918	0.403
AVAFVYFKSIG [ADGRL4_Y301_YF]	0.928	0.686	0.628	0.798	0.797	0.626	1.15	1.38	0.643	1.6	0.911	0.938	0.471	0.728	1.01	0.426
LSVEIYDRREF [ITGB7_Y753_YF]	0.985	0.648	0.542	0.498	0.483	2.83	0.958	1.26	0.946	1.25	0.428	0.569	0.522	0.595	0.824	1.01
PVDTFYDSTRG [DYNC2H1_Y2231_M2227V_YF]	0.661	0.652	0.503	0.423	0.551	0.888	0.939	0.973	0.671	0.95	0.638	1.04	0.404	0.917	0.722	0.671
AAVDEYLEFRR [FAM221A_Y17_YF]	0.926	0.496	0.559	0.601	0.517	1.47	0.756	1.14	0.949	0.963	0.395	0.722	0.409	0.421	0.531	1.28
GEDPIYVTLEG [RTKtide_2018]	0.906	0.485	0.718	4.71	6.76	3.44	1.2	1.81	5.05	1.47	5.64	1.7	2.29	3.86	3.4	3.9
QTEAQYRFIYM [PTPN11_Y511]	0.563	0.744	0.244	1.65	0.782	0.542	1.56	1.77	0.634	1.29	0.835	1.5	0.667	1.09	1.54	1.23
PNQRRYVFFFS [PTEN_Y174_S170N_YF]	1.14	1.88	1.23	0.731	0.639	0.77	1.22	1.89	0.524	1.65	0.61	1.22	0.491	0.76	1.25	0.677
LEFNEYFRDLN [HPRT1_Y198_D194E_YF]	0.926	0.743	0.488	1.09	1.15	0.828	1.25	2.14	0.992	1.66	1.21	0.805	0.795	0.769	1.95	0.809
LRRREYQRQDF [PRKRIP1_Y90_YF]	0.671	0.55	0.397	0.699	0.559	0.572	0.836	0.603	0.539	0.679	0.549	0.777	0.7	0.563	0.561	0.977
MAFDRYVAVCA [OR52J3_Y125]	0.746	0.647	0.663	0.519	0.7	0.537	0.995	0.845	0.438	1.08	0.649	0.779	0.522	0.468	0.582	0.458
GANSEYIIAEK [ECHS1_Y35_F33S]	1	0.487	0.435	0.483	0.618	0.587	1.1	1.26	0.64	1.01	0.711	0.764	0.581	0.468	0.61	0.646
KVDKECEVRVR [GHR_Y226_Y226C]	0.889	0.842	0.575	0.502	0.569	0.414	0.821	0.739	0.421	0.832	0.513	0.638	0.355	0.478	0.556	0.446
YASALYGQRRS [FGF11_Y162_R163G]	0.675	0.424	0.553	0.371	0.384	1.54	0.604	0.633	0.659	0.668	0.391	0.978	0.505	0.411	0.408	0.784
CSSGGYEPRGR [FUS_Y239_R234C]	0.887	0.654	0.472	0.432	0.439	0.436	0.594	0.801	0.411	0.861	0.411	0.528	0.396	0.475	0.547	0.353
TPGPNYRPGYN [USH2A_Y463]	0.671	0.488	0.442	0.232	0.542	0.346	0.597	0.562	0.432	0.549	0.39	0.404	0.487	0.294	0.676	0.309

Sequence	SH2 binding enrichment (Grb2 SH2)	SH2 binding enrichment (SHP2-C SH2)	SH2 binding enrichment (c-Src SH2)	phosphorylation enrichment (FGFR1)	phosphorylation enrichment (EPHB2)	phosphorylation enrichment (Hck)	phosphorylation enrichment (Jak2)	phosphorylation enrichment (AncSZ)	phosphorylation enrichment (Fyn)	phosphorylation enrichment (Fes)	phosphorylation enrichment (EPHB1)	phosphorylation enrichment (c-Abl (mouse))	phosphorylation enrichment (MERTK)	phosphorylation enrichment (Fer (mouse))	phosphorylation enrichment (FGFR3)	phosphorylation enrichment (c-Src)
GGRKGYGDFSR [RECQL5_Y478]	1.15	0.798	0.674	0.345	0.354	0.33	0.422	0.416	0.334	0.622	0.412	0.944	0.425	0.352	0.363	0.418
GTVRDYPDFSP [ANXA3_Y15]	0.732	0.623	0.439	0.508	0.559	0.49	0.702	0.759	0.444	0.79	0.44	0.532	0.364	0.395	0.587	0.372
TGQERYRAITS [RAB11B_Y73_A68T]	0.836	0.695	0.485	0.423	0.291	0.519	0.369	0.516	0.451	0.588	0.322	0.368	0.337	0.346	0.392	0.344
SVGVPYEPPEV [TP53_Y220_V217G]	0.718	0.861	0.444	0.523	0.57	0.577	1.09	1.16	0.545	1.29	0.534	0.881	0.485	0.585	0.748	0.509
VLALWYYYLTN [ZDHHC23_Y127_H132N]	1.24	1.22	1.02	8.15	0.851	0.738	3.09	1.29	0.611	1.81	1.1	1.05	3.86	0.766	6.91	1.35
EVVGRYSGHNA [MLH1_Y183_V185G]	0.768	0.629	0.448	0.405	0.4	0.403	0.397	0.464	0.414	0.514	0.434	0.368	0.426	0.397	0.48	0.34
RDEHGYISRCF [HSPB1_Y133_Q128R]	0.717	0.455	0.45	0.722	1.15	0.755	1.53	1.49	0.825	1.65	0.789	1.23	0.565	0.734	1.17	0.675
LGIDRYHAIVF [NPSR1_Y147_S143G_YF]	0.851	0.689	1.28	1.55	1.41	0.942	2.47	2.59	0.732	1.82	1.22	1.31	1.52	1.04	1.37	1.11
ALTRSYIREKV [CYP2C8_Y243]	0.655	0.576	0.433	0.423	0.316	0.4	0.445	0.524	0.422	0.596	0.388	0.417	0.369	0.43	0.367	0.419
SISLRYEGRVF [ABL1_Y167_YF]	1.05	0.926	0.68	0.524	0.703	0.507	0.918	1.25	0.438	1.26	0.636	0.696	0.384	0.686	0.838	0.372
TVLWLYTGTRP [UGT1A1_Y337_R336L]	1.28	1.3	1.06	0.369	0.487	0.466	1.06	1.17	0.68	1.27	0.548	0.532	0.318	0.527	0.742	0.255
IGRHAYGDQFR [IDH1_Y135_YF]	0.996	0.633	0.817	0.331	0.391	0.341	0.487	0.449	0.381	0.507	0.367	0.516	0.296	0.339	0.383	0.407
SLRAHYDTPRS [DOK7_Y405]	0.712	0.914	3.32	0.343	0.351	0.328	0.402	0.428	0.349	0.448	0.392	0.412	0.319	0.367	0.351	0.298
QGIIIYKAAFF [SLC25A4_Y187_R188K_YF]	1.36	0.446	0.373	0.798	0.723	0.526	1.05	1.5	0.569	1.36	1.21	1.1	0.439	0.721	0.852	0.917
EEQKKYYNAMK [SCN5A_Y1494]	1.25	0.603	0.639	0.509	0.492	0.392	0.674	0.67	0.458	0.771	0.451	0.525	0.355	0.377	0.535	0.384
AIIGIYNLRDD [CDH23_Y2949_I2950N]	1.14	0.951	0.805	0.478	0.437	5.28	0.795	0.821	6.82	1	0.481	0.691	0.573	0.45	0.599	5.84
